Earlier results on 2 substances are cited in paper PMC10966181.

The target in the data set is Tyr159 (UniProt position 159, ISIHVYGANIG). Kind of data set: kinetics. The following applies: Catalytically active Fe(II)-MDO turning over the substrate 3MPA.

In general, pKa refers to the pH at which an ionisable group is half protonated. For “3-mercaptopropionate dioxygenase (MDO) H157N variant (Azotobacter vinelandii; H157N)”, the pKa is given as 9.9 ± 0.1.

With “3-mercaptopropionate dioxygenase (MDO, AvMDO) (Azotobacter vinelandii)”, the pKa is on record as 9.2 ± 0.1.
